# Measurements taken from PMC8013792, “Bacterial protein domains with a novel Ig‐like fold target human CEACAM receptors” (The EMBO Journal, 2021).
# B1: recombinant CEACAM1 N-terminal domain, unglycosylated, 6xHis tagged [human] / IgSF (IgI3) domain of β protein, recombinant, biotinylated [modified: biotin, C-terminal] [Streptococcus agalactiae (GBS)] (parent complex)
# chain 1: MAQLTTESMPFNVAEGKEVLLLVHNLPQQLFGYSWYKGERVDGNRQIVGYAIGTQQATPGPANSGRETIYPNASLLIQNVTQNDTGFYTLQVIKSDLVNEEATGQFHVY
# chain 2: ANENNQQKIELTVSPENITVYEGEDVKFTVTAKSDSKTTLDFSDLLTKYNPSVSDRISTNYKTNTDNHKIAEITIKNLKLNESQTVTLKAKDDSGNVVEKTFTITVQKKEEKQLPSTGGS
# B2: IgSF (IgI3) domain of β protein, recombinant, biotinylated [modified: biotin, C-terminal] [Streptococcus agalactiae (GBS)] / recombinant CEACAM1 N-terminal domain, unglycosylated, 6xHis tagged [human] (parent complex)
# chain 1: B1 chain 2
# chain 2: B1 chain 1
# Variants of: B1
# Test: flow cytometry on coated dynabeads; parent: 390; read off a plot
row,Variant,response
1,chain 2 ANENNQQKIELTVSPENITVYEGEDVKFTVTAKSDSKTTLDFSDLLTKYNPSASDRISTNYKTNTDNHKIAEITIKNLKLNESQTVTLKAKDDSGNVVEKTFTITVQKKEEKQLPSTGGS [chain 2 V53A],~280 Geometric MFI
2,chain 2 ANENNQQKIELTVSPENITVYEGEDVKFTVTAKSDSKTTLDFSDLLTKYNPSVSARISTNYKTNTDNHKIAEITIKNLKLNESQTVTLKAKDDSGNVVEKTFTITVQKKEEKQLPSTGGS [chain 2 D55A],~340 Geometric MFI
3,chain 2 ANENNQQKIELTVSPENITVYEGEDVKFTVTAKSDSKTTLDASDLLTKYNPSVSDRISTNYKTNTDNHKIAEITIKNLKLNESQTVTLKAKDDSGNVVEKTFTITVQKKEEKQLPSTGGS [chain 2 F42A],~750 Geometric MFI
4,chain 2 ANENNQQKIELTVSPENITVYEGEDVKFTVTAKSDSKTTLDFSDLATKYNPSVSDRISTNYKTNTDNHKIAEITIKNLKLNESQTVTLKAKDDSGNVVEKTFTITVQKKEEKQLPSTGGS [chain 2 L46A],~200 Geometric MFI

# Variants of: B2
# Test: flow cytometry on coated dynabeads; parent: 800; read off a plot
row,Variant,response
1,chain 2 MAQLTTESMPFNVAEGKEVLLLVHNLPQQLFGYSWYKGERVDGNRQIVGYAIGTQQATPGPANSGRETIYPNASLLIQNVTQNDTGFYTLQVIKSDLANEEATGQFHVY [chain 2 V98A],~590 Geometric MFI
2,chain 2 MAQLTTESMPFNVAEGKEVLLLVHNLPQQLFGYSWYKGERVDGNRAIVGYAIGTQQATPGPANSGRETIYPNASLLIQNVTQNDTGFYTLQVIKSDLVNEEATGQFHVY [chain 2 Q46A],~510 Geometric MFI
3,chain 2 MAQLTTESMPFNVAEGKEVLLLVHNLPQQLAGYSWYKGERVDGNRQIVGYAIGTQQATPGPANSGRETIYPNASLLIQNVTQNDTGFYTLQVIKSDLVNEEATGQFHVY [chain 2 F31A],~390 Geometric MFI
4,chain 2 MAQLTTESMPFNVAEGKEVLLLVHNLPQQLFGYSWYKGERVDGNRQIVGYAIGTQQATPGPANSGRETIYPNASLLIQNVTQNDTGFYTLQVIKSDAVNEEATGQFHVY [chain 2 L97A],~450 Geometric MFI
5,chain 2 MAQLTTESMPFNVAEGKEVLLLVHNLPQQLFGYSWYKGERVDGNRQIVGYAIGTQQATPGPANSGRETIYPNASLLIQNVTQNDTGFYTLQVIKSDLVAEEATGQFHVY [chain 2 N99A],~540 Geometric MFI
6,chain 2 MAQLTTESMPFNVAEGKEVLLLVHNLPQQLFGYSWYKGERVDGNRQIVGYAIGTQQATPGPANSGRETIYPNASLLIQNVTQNDTGFYTLAVIKSDLVNEEATGQFHVY [chain 2 Q91A],~230 Geometric MFI
7,chain 2 MAQLTTESMPFNVAEGKEVLLLVHNLPQQLFGYSWYKGERVDGNRQIVGYAIGTQQATPGPANSGRETIYPNASLLIQNVTQNDTGFYTLQVAKSDLVNEEATGQFHVY [chain 2 I93A],~240 Geometric MFI
